Measured values reported in patent US6495673 (MEDICAL RESEARCH COUNCIL, dated 2002).
No end group written: not given here. *: point of attachment. Biotin = O=C1N[C@H]2[C@H](CS[C@H]2CCCCC(=O)*)N1

Columns and labels:
[1] = molecular target: T1, GST-phage fusion FV7 (glutathione S-transferase displayed on phage without calmodulin, from vector pFV7) (S. japonica; filamentous phage, UniProt P08515 1-218 = GST; P69168 19-424); experiment: phage ELISA on streptavidin plate with biotin-peptide
T1 construct: Any vector tags of pCANTAB6 are not described; also called non-specific phage; E-fd (GST)
T1 sequence (P08515 1-218, tags or fused parts left off): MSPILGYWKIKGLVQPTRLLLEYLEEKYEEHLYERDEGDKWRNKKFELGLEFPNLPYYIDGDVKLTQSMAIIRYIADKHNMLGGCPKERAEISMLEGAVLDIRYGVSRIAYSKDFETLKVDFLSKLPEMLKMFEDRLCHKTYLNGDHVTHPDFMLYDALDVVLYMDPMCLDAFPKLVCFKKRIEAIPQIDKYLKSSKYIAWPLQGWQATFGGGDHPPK

[2] = molecular target: Calmodulin-tagged phage DN323 (calmodulin displayed as a gene III fusion on filamentous phage, from phagemid … (filamentous phage, UniProt P0DP23 2-149)); experiment: competition ELISA over time with 1000-fold excess of unlabeled peptide

binding result [1]: no binding | koff [2]: < 0.1 s⁻¹
B1: biotin-labeled CAAARWKKAFIAVSAANRFKKIS peptide (SEQ ID NO: 15) (peptide)
peptide: Biotin-CAAARWKKAFIAVSAANRFKKIS
